Experimental data: PMC7305319, “Talin dissociates from RIAM and associates to vinculin sequentially in response to the actomyosin force” (Nature Communications, 2020)
Where two headings read alike, the source gives them in different places. Each block holds one molecule with its values, some of them ahead of it.

Assays:
RIAM (Homo sapiens) [1] = target: RIAM (Homo sapiens) (UniProt Q7Z5R6); settings: cited from earlier work
RIAM (Homo sapiens) [2] = target: RIAM (Homo sapiens) (UniProt Q7Z5R6); settings: cited from earlier work; remark: listed apart in the source
Talin R1-R2-R3 = Talin R1-R2-R3 (UniProt Q9Y490); settings: cited from earlier work
[3] = target: T1, talin F2–F3–R1–R2–R3 (talin 196–911) (human, UniProt Q9Y490 196-911); test: fluorescence microscopy of protein-coated micropatterns; talin construct (1 µM during coating) on 5 µm disk micropatterns, 0–1 µM mCherry-RIAM 1-306 in solution, no actomyosin; Kd estimated as the RIAM concentration at half saturation; settings: both partners purified
T1 construct: human talin-1, F2–F3–R1–R2–R3, residues 196–911; The methods tell of GST cleavage only for mCherry-RIAM 1-306 and EGFP-Vh, so GST was probably kept on this construct; also called the same construct fused to R1–R2–R3; source: E. coli BL21 DE3, purified (glutathione-Sepharose, Ni-NTA)

[4] = target: T2, talin R7–R8 (F2–F3–R7–R8–R13) (human)
T2 chain: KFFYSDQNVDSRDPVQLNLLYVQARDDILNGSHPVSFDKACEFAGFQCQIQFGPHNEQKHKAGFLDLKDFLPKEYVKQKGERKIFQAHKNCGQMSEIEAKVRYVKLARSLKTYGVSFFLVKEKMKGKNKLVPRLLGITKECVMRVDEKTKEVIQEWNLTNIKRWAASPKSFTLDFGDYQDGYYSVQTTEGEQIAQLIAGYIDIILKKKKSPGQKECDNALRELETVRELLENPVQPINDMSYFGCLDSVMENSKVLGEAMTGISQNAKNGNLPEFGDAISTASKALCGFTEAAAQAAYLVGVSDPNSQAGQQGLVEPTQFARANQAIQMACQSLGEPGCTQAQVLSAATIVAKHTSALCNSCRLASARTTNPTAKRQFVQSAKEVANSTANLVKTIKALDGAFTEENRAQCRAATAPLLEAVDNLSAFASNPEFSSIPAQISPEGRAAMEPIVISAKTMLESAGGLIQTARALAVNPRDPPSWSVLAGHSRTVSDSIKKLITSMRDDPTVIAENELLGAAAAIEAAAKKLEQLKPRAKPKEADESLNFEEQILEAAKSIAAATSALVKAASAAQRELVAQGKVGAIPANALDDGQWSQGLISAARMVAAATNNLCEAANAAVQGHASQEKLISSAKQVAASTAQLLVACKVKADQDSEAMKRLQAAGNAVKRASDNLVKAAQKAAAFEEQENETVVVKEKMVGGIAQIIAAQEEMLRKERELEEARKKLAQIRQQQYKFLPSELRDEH

[5] = target: T3, talin R1–R2–R3 (F2–F3–R1–R2–R3–R13) (human)
T3 chain: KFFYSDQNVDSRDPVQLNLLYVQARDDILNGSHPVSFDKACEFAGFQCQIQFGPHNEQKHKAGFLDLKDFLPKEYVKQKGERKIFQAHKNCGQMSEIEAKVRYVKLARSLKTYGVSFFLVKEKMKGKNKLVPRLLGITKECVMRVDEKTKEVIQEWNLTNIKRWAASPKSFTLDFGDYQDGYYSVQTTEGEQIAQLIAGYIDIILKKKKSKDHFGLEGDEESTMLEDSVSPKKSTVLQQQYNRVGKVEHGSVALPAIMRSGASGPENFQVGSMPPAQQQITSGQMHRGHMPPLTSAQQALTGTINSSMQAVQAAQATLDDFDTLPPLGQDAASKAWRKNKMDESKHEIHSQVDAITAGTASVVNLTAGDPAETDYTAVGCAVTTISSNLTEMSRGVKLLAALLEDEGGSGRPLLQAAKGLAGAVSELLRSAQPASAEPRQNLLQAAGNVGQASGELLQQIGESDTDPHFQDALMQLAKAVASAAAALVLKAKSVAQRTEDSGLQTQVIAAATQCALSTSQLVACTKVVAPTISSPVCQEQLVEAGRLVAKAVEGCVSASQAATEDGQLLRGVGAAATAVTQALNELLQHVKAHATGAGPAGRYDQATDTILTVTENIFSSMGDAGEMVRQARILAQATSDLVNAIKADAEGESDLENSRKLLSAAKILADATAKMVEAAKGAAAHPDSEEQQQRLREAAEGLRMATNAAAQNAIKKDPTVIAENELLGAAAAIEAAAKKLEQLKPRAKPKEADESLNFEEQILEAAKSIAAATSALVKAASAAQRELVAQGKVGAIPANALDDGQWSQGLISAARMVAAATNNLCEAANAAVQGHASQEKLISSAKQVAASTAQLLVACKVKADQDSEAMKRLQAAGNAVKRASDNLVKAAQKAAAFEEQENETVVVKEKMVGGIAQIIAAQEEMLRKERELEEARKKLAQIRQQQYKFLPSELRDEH

[6] = target: T4, talin R11 (F2–F3–R11–R13) (human)
T4 chain: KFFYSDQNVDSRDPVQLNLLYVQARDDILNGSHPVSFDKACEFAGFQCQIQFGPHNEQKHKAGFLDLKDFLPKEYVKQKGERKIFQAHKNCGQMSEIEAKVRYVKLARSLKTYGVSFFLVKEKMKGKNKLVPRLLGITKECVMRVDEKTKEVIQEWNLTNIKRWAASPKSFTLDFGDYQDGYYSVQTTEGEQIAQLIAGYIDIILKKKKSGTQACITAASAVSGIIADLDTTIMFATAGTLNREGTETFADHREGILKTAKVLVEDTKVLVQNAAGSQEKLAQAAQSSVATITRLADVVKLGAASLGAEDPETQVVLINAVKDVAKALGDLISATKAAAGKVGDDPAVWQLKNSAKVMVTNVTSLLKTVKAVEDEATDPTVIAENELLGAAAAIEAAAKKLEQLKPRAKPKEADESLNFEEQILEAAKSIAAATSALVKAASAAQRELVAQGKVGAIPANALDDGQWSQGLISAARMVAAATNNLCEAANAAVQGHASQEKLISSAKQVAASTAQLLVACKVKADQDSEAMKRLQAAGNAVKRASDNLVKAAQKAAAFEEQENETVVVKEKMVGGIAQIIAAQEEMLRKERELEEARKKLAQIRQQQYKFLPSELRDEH

[7] = target: T3, talin R1–R2–R3 (F2–F3–R1–R2–R3–R13); test: fluorescence microscopy of protein-coated micropatterns; talin construct (1 µM during coating) on 5 µm disk micropatterns, 0–1 µM mCherry-RIAM 1-306 in solution, no actomyosin; Kd estimated as the RIAM concentration at half saturation
[8] = target: T3, talin R1–R2–R3 (F2–F3–R1–R2–R3–R13); test: fluorescence microscopy of protein-coated micropatterns; talin construct (1 µM during coating) on disk micropatterns, 100 nM mCherry-RIAM 1-306 in solution, with actomyosin (2.4 µM actin, 50 nM myosin II) applying force to talin

RIAM (Homo sapiens), sequence (Q7Z5R6 whole entry): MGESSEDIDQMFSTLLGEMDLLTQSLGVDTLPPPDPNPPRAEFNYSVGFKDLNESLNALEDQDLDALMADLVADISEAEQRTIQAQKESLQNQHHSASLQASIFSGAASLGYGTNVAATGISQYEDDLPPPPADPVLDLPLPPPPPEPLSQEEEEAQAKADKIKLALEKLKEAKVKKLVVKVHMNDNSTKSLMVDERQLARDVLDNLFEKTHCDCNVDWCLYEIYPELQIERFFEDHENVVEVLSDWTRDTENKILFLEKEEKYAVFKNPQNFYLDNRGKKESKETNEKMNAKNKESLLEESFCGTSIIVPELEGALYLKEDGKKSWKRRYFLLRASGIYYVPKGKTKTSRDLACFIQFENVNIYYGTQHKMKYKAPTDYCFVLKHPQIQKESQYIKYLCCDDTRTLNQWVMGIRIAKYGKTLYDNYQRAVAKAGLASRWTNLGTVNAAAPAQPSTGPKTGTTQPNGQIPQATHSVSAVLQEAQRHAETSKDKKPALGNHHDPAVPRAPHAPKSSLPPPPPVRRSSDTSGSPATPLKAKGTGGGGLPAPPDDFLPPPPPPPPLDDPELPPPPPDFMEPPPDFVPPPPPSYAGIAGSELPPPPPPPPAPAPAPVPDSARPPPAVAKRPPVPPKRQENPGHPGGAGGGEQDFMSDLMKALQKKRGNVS

Molecule: Talin F3 (from UniProt P26039)
- Kd (RIAM (Homo sapiens) [1]): 32000 nM

Molecule: Vinculin Vh (from UniProt P18206)
- Kd (RIAM (Homo sapiens) [2]): 5000 nM
- Kd (Talin R1-R2-R3): 140 nM

- binding result [3]: binds
- Kd [4]: 38 nM
- Kd [5]: 134 nM
- Kd [6]: 36 nM
- Kd [7]: 36 nM
- percent of RIAM dissociated from talin at the end of the kinetics with actomyosin [8]: 50%
B1: mCherry-RIAM 1-306 (domain or fragment, mouse, UniProt Q8R5A3 1-306, looked up)
chain: MGESNEDIDQMFSTLLGEMDLLTQSLGVDTLPPPDPNPPREEFNYTVGFKDLNESLNALEDQDLDALMADLVADISEAEQRTIQAQKESSQNQDRFALLRASDGQGTASGGYGASAAAIDVSHHEEALPPPPVEPMLDLLPPPPPPPPPELLSKEEEEAKAKADKIKLALEKLKEAKVKKLVVKVHMDDSSTKSLMVDERQLARDVLDNLFEKTHCDCNVDWCLYEIYPELQIERVFEDHENVVEVLSDWTRDTENKVLFLEKEERYAVFKNPQNFYLDNKGKKENKETNEKMNAKNKEYLLEESF
notes: Cloned in a homemade pGEX-6P2-mCherry plasmid; source: E. coli BL21 DE3, purified (glutathione-Sepharose, PreScission cleavage, Ni-NTA); not shown: GST, N-terminal, cleaved
